Source: patent US20250289897A1 (Eli Lilly, published 2025)

Molecular target: T1, human LEPR-ECD-His (human, UniProt P48357 22-839)
T1 sequence: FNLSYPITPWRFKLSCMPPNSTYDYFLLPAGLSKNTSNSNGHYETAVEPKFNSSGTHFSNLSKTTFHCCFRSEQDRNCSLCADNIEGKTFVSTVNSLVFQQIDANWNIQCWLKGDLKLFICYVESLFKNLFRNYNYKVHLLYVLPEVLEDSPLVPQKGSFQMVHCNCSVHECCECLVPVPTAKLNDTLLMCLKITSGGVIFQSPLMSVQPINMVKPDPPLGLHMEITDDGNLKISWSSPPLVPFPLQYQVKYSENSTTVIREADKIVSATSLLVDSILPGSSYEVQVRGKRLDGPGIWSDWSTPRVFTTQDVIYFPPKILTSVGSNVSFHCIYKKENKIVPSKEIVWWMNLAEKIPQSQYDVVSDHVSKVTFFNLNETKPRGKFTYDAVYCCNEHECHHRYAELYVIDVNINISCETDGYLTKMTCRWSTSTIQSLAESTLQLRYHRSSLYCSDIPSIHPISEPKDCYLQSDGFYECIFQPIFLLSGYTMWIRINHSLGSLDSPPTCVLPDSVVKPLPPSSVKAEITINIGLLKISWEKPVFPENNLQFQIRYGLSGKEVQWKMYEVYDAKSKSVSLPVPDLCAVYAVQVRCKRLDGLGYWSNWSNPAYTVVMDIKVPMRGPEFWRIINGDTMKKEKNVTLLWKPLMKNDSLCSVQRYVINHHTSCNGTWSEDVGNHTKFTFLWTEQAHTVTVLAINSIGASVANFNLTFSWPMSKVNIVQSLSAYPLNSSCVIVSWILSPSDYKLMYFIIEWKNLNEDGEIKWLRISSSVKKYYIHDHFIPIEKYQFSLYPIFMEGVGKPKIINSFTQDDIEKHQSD
Test: SPR (Biacore T200), antibody captured on Protein A/G chip, His-tagged LEPR-ECD as analyte, 1:1 fit; mean n=3, SD 6.8E-9
Protocol: His-tagged ECDs were expressed and purified for each species and used for affinity analysis. A Protein A/G chip (Xantec, Cat #PAGHC200M) was utilized in this experiment with HBS-EP +0.01% BSA as running buffer. Antibodies were diluted to 1 μg/mL in running buffer and captured to a single flow cell on the chip surface. Each species of LEPR-ECD was diluted to 1000 nM in running buffer followed by 2-fold serial dilution. Each ligand concentration was injected over all flow cells at 100 L/min for 150 seconds followed by a 600 second dissociation phase. Regeneration was performed by injecting 10 mM glycine pH1.5 for 30 seconds at 10 μL/min. Data were analyzed in Biacore T200 Evaluation Software 3.1 by flow-cell 1 reference subtraction along with 0 nM blank subtraction. Data were fit globally using a “1:1 Binding” binding model to determine the on-rate (kₐ) and off-rate (kd) for each ligand. The affinity (KD) was calculated from the binding kinetics according to the relationship KD=kₐ/kd. Data reported as mean±standard deviation of experimental replicates.

B1: Antibody B (antibody, human IgG1, kappa, L234A L235A, V domains shown)
VH: EVQLLESGGGLVQPGGSLRLSCAASGFTFSSFAMSWVRQAPGKGLEWVSAISGSGGSTYSADSVRGRFTISRDNSKNTLYLQMNSLRAEDTAVYYCAKDQGDWDFLFDYWGQGTLVTVSS
VL: DIQMTQSPSFLSASVGDRVTITCRVSQGISSSLAWYQQKPGKAPKLLIYTASTLQSGVPSRFSGSGSGTEFTLTISSLQPEDFATYYCQQLNYYPFTFGQGTKVEIKR
- Kd: 22 nM
